Article PMC9482650, “Quantitative fragmentomics allow affinity mapping of interactomes” (Nature Communications, 2022)
Blank lines part the entries; values can stand above or below the binder they belong to.

Legend:
Test in all cases: holdup assay
Design in all cases: key: below the threshold = too weak to quantify, mostly under pKd 3.1 to 4
[1] = target: Inadl_5, Q8NI35
[2] = target: MAGI2_6, Q86UL8
[3] = target: DLG4_3, P78352
[4] = target: T1, SNTA1, Q13424
T1 sequence (Q13424 82-180, limits assumed, looked up): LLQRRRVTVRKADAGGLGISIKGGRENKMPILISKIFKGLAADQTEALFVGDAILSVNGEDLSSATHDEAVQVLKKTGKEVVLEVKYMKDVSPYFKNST

[5] = target: T2, APBA3_1, O96018
T2 sequence (O96018 389-490, limits assumed, looked up): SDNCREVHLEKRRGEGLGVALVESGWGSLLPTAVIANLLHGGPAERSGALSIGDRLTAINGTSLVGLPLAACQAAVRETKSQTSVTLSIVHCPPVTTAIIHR

[6] = target: T3, GRIP1_2, Q9Y3R0
T3 sequence (Q9Y3R0 145-248, limits assumed, looked up): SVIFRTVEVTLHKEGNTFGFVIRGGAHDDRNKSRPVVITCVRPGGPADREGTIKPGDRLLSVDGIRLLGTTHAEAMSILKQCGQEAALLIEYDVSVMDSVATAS

[7] = target: T4, DFNB31_1, Q9P202
T4 sequence (Q9P202 135-233, limits assumed, looked up): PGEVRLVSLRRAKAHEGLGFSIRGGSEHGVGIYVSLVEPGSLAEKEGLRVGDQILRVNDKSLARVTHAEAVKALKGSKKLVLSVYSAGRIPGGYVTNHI

[8] = target: LNX1_3, Q8TBB1
Sequence of LNX1_3, Q8TBB1 (Q8TBB1 500-596): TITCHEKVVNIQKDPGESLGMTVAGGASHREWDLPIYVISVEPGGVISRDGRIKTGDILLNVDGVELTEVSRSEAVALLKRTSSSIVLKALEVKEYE

[9] = target: T5, SIPA1L2, Q9P2F8
T5 sequence (Q9P2F8 945-1036, limits assumed, looked up): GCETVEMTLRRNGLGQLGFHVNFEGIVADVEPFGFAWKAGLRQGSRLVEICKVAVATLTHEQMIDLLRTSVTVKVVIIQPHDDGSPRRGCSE

[10] = target: T6, HTRA3, P83110
T6 sequence (P83110 354-453, limits assumed, looked up): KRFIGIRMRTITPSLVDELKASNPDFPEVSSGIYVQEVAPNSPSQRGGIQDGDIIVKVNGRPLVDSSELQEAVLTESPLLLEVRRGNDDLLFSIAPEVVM

[11] = target: FRMPD2_3, Q68DX3
Sequence of FRMPD2_3, Q68DX3 (Q68DX3 1073-1166): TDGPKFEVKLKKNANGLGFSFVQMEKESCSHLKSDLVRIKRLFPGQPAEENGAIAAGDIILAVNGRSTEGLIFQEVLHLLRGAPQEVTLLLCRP

[12] = target: NHERF4_2, Q86UT5
Sequence of NHERF4_2, Q86UT5 (Q86UT5 220-308): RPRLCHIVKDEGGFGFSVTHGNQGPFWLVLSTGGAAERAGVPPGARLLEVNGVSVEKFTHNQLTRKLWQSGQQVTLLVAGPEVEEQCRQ

[13] = target: DLG1_2, Q12959
Sequence of DLG1_2, Q12959 (Q12959 314-412): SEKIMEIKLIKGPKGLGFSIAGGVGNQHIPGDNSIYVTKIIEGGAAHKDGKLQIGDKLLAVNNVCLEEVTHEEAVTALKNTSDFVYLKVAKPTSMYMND

[14] = target: MAGI2_4, Q86UL8
Sequence of MAGI2_4, Q86UL8 (Q86UL8 772-865): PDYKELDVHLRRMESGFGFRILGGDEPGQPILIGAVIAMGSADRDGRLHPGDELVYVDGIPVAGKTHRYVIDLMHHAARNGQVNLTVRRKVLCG

[15] = target: FRMPD2_2, Q68DX3
Sequence of FRMPD2_2, Q68DX3 (Q68DX3 944-1038): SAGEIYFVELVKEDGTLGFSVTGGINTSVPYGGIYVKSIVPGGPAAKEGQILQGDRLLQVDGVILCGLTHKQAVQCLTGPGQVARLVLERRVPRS

[16] = target: T7, PDZD2_2, O15018
T7 sequence (O15018 329-429, limits assumed, looked up): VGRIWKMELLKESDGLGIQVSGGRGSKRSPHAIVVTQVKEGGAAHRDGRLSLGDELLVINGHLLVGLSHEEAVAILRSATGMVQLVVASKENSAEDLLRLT

[17] = target: Inadl_8, Q8NI35
Sequence of Inadl_8, Q8NI35 (Q8NI35 1425-1530): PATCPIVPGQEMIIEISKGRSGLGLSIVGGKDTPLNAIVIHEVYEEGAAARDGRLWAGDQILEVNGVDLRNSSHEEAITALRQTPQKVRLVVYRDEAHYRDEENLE

[18] = target: T8, LRRC7, Q96NW7
T8 sequence (Q96NW7 1440-1537, limits assumed, looked up): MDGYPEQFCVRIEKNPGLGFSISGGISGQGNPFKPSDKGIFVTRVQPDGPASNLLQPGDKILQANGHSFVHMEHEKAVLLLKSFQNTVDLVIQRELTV

[19] = target: T9, APBA2_2, Q99767
T9 sequence (Q99767 654-744, limits assumed, looked up): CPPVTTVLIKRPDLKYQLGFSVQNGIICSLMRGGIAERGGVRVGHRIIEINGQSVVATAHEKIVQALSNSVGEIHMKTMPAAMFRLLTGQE

[20] = target: T10, MPP6, Q9NZW5
T10 sequence (Q9NZW5 125-219, limits assumed, looked up): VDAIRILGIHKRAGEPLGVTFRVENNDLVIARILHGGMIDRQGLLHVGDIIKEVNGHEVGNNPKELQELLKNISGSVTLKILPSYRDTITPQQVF

[21] = target: T11, PTPN13_1, Q12923
T11 sequence (Q12923 1088-1188, limits assumed, looked up): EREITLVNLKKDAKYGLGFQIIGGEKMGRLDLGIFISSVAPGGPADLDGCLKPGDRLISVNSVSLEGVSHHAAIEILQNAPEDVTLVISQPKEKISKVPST

[22] = target: T12, NHERF3_1, Q5T2W1
T12 sequence (Q5T2W1 4-100, limits assumed, looked up): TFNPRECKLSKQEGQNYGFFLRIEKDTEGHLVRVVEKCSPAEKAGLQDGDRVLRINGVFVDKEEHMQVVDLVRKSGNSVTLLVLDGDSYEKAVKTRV

[23] = target: T13, SNTG2, Q9NY99
T13 sequence (Q9NY99 68-166, limits assumed, looked up): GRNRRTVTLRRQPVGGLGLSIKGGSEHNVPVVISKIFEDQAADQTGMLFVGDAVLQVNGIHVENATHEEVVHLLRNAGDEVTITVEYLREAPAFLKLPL

[24] = target: GRASP, Q7Z6J2
Sequence of GRASP, Q7Z6J2 (Q7Z6J2 96-193): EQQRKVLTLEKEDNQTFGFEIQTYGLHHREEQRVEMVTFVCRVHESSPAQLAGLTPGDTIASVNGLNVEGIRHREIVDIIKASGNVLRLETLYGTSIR

[25] = target: SNX27, Q96L92
[26] = plain residues with an end cap or a label only (N-terminal biotin on a linker: ahx)
[27] = plain residues with an end cap or a label only (N-terminal biotin on a linker: ttds)

Sequence of Inadl_5, Q8NI35 (Q8NI35 673-780): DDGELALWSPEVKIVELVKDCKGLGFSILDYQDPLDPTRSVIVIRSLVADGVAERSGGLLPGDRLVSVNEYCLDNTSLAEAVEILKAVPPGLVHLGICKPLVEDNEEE
Sequence of MAGI2_6, Q86UL8 (Q86UL8 1141-1229): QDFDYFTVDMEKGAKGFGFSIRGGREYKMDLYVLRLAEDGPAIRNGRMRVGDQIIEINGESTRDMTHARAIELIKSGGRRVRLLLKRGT
Sequence of DLG4_3, P78352 (P78352 306-403): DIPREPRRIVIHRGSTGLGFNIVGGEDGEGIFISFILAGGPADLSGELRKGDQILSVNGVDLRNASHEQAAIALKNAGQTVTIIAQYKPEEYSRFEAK

pKd [1, 26]: below the threshold
pKd [2, 26]: below the threshold
pKd [3, 26]: below the threshold
pKd [4, 26]: 3.49
pKd [5, 26]: below the threshold
pKd [6, 26]: below the threshold
pKd [7, 26]: below the threshold
pKd [8, 26]: below the threshold
pKd [9, 26]: below the threshold
pKd [10, 26]: below the threshold
pKd [11, 26]: below the threshold
pKd [12, 26]: below the threshold
pKd [13, 26]: below the threshold
pKd [14, 26]: 3.51
pKd [15, 26]: below the threshold
pKd [16, 26]: 3.75
pKd [17, 26]: below the threshold
pKd [18, 26]: below the threshold
pKd [19, 26]: below the threshold
pKd [20, 26]: below the threshold
pKd [21, 26]: below the threshold
pKd [22, 26]: 4.27
pKd [23, 26]: below the threshold
pKd [24, 26]: 4.41
pKd [25, 26]: 4.51
Binder: KEYDDELTFF [USH1C, Q9Y6N9]

pKd [1, 27]: 4.29
pKd [2, 27]: below the threshold
pKd [3, 27]: below the threshold
pKd [4, 27]: below the threshold
pKd [5, 27]: below the threshold
pKd [6, 27]: 3.52
pKd [7, 27]: below the threshold
pKd [8, 27]: below the threshold
pKd [9, 27]: below the threshold
pKd [10, 27]: below the threshold
pKd [11, 27]: below the threshold
pKd [12, 27]: below the threshold
pKd [13, 27]: 3.87
pKd [14, 27]: below the threshold
pKd [15, 27]: below the threshold
pKd [16, 27]: 3.8
pKd [17, 27]: 4.04
pKd [18, 27]: below the threshold
pKd [19, 27]: below the threshold
pKd [20, 27]: below the threshold
pKd [21, 27]: below the threshold
pKd [22, 27]: below the threshold
pKd [23, 27]: below the threshold
pKd [24, 27]: below the threshold
pKd [25, 27]: below the threshold
Binder: PFRSRSPSEV [GPR6, P46095]

pKd [1, 27]: below the threshold
pKd [2, 27]: 4.43
pKd [3, 27]: 4.02
pKd [4, 27]: 4.34
pKd [5, 27]: below the threshold
pKd [6, 27]: below the threshold
pKd [7, 27]: 3.65
pKd [8, 27]: below the threshold
pKd [9, 27]: below the threshold
pKd [10, 27]: 3.96
pKd [11, 27]: 3.46
pKd [12, 27]: below the threshold
pKd [13, 27]: 4.78
pKd [14, 27]: below the threshold
pKd [15, 27]: 3.81
pKd [16, 27]: 4.09
pKd [17, 27]: below the threshold
pKd [18, 27]: below the threshold
pKd [19, 27]: below the threshold
pKd [20, 27]: below the threshold
pKd [21, 27]: below the threshold
pKd [22, 27]: 4.22
pKd [23, 27]: below the threshold
pKd [24, 27]: 3.45
pKd [25, 27]: 4.8
Binder: SHSSKGETAV [FZD7, O75084]
